± gives the standard deviation of the averaged measurements.
What was measured:
hTERT-HMEC = assay: percentage of EdU-negative (G0-arrested) nuclei per well, 72 h; higher = more G0 arrest; details: reference: sequence is the full UniProt precursor, the tested protein was the secreted form or ectodomain
MCF7 = assay: as above; details: reference: sequence is the full UniProt precursor, the tested protein was the secreted form or ectodomain
[1] = protein concentration 0.0197143 µM
[2] = protein concentration 0.197143 µM
[3] = protein concentration 0.0225 µM
[4] = protein concentration 0.03092 µM
[5] = protein concentration 0.3092 µM
[6] = protein concentration 0.03125 µM
[7] = protein concentration 0.3125 µM
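Also: secreted proteins added to cultured cells, EdU pulse at the end, nuclei found by Hoechst imaging, EdU status from nuclear versus surrounding ring intensity ratio, PBS as neutral control.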

Sequence | percentage of EdU-negative (hTERT-HMEC; [3]) [%] | percentage of EdU-negative (hTERT-HMEC; protein concentration 0.225 µM) [%] | percentage of EdU-negative (MCF7; [3]) [%] | percentage of EdU-negative (MCF7; protein concentration 0.225 µM) [%] | also measured
MHPHRDPRGLWLLLPSLSLLLFEVARAGRAVVSCPAACLCASNILSCSKQQLPNVPHSLPSYTALLDLSHNNLSRLRAEWTPTRLTQLHSLLLSHNHLNFISSEAFSPVPNLRYLDLSSNQLRTLDEFLFSDLQVLEVLLLYNNHIMAVDRCAFDDMAQLQKLYLSQNQISRFPLELVKEGAKLPKLTLLDLSSNKLKNLPLPDLQKLPAWIKNGLYLHNNPLNCDCELYQLFSHWQYRQLSSVMDFQEDLYCMNSKKLHNVFNLSFLNCGEYKERAWEAHLGDTLIIKCDTKQQGMTKVWVTPSNERVLDEVTNGTVSVSKDGSLLFQQVQVEDGGVYTCYAMGETFNETLSVELKVHNFTLHGHHDTLNTAYTTLVGCILSVVLVLIYLYLTPCRCWCRGVEKPSSHQGDSLSSSMLSTTPNHDPMAGGDKDDGFDRRVAFLEPAGPGQGQNGKLKPGNTLPVPEATGKGQRRMSDPESVSSVFSDTPIVV [Q86WK6] |  |  |  |  | percentage of EdU-negative (hTERT-HMEC; [1]): 6.07 ± 0.64%; percentage of EdU-negative (hTERT-HMEC; [2]): 17.3 ± 0.43%; percentage of EdU-negative (MCF7; [1]): 21.9 ± 0.6%; percentage of EdU-negative (MCF7; [2]): 29.5 ± 1.3%
MHQMNAKMHFRFVFALLIVSFNHDVLGKNLKYRIYEEQRVGSVIARLSEDVADVLLKLPNPSTVRFRAMQRGNSPLLVVNEDNGEISIGATIDREQLCQKNLNCSIEFDVITLPTEHLQLFHIEVEVLDINDNSPQFSRSLIPIEISESAAVGTRIPLDSAFDPDVGENSLHTYSLSANDFFNIEVRTRTDGAKYAELIVVRELDRELKSSYELQLTASDMGVPQRSGSSILKISISDSNDNSPAFEQQSYIIQLLENSPVGTLLLDLNATDPDEGANGKIVYSFSSHVSPKIMETFKIDSERGHLTLFKQVDYEITKSYEIDVQAQDLGPNSIPAHCKIIIKVVDVNDNKPEININLMSPGKEEISYIFEGDPIDTFVALVRVQDKDSGLNGEIVCKLHGHGHFKLQKTYENNYLILTNATLDREKRSEYSLTVIAEDRGTPSLSTVKHFTVQINDINDNPPHFQRSRYEFVISENNSPGAYITTVTATDPDLGENGQVTYTILESFILGSSITTYVTIDPSNGAIYALRIFDHEEVSQITFVVEARDGGSPKQLVSNTTVVLTIIDENDNVPVVIGPALRNNTAEITIPKGAESGFHVTRIRAIDRDSGVNAELSCAIVAGNEENIFIIDPRSCDIHTNVSMDSVPYTEWELSVIIQDKGNPQLHTKVLLKCMIFEYAESVTSTAMTSVSQASLDVSMIIIISLGAICAVLLVIMVLFATRCNREKKDTRSYNCRVAESTYQHHPKRPSRQIHKGDITLVPTINGTLPIRSHHRSSPSSSPTLERGQMGSRQSHNSHQSLNSLVTISSNHVPENFSLELTHATPAVEQVSQLLSMLHQGQYQPRPSFRGNKYSRSYRYALQDMDKFSLKDSGRGDSEAGDSDYDLGRDSPIDRLLGEGFSDLFLTDGRIPAAMRLCTEECRVLGHSDQCWMPPLPSPSSDYRSNMFIPGEEFPTQPQQQHPHQSLEDDAQPADSGEKKKSFSTFGKDSPNDEDTGDTSTSSLLSEMSSVFQRLLPPSLDTYSECSEVDRSNSLERRKGPLPAKTVGYPQGVAAWAASTHFQNPTTNCGPPLGTHSSVQPSSKWLPAMEEIPENYEEDDFDNVLNHLNDGKHELMDASELVAEINKLLQDVRQS [Q9HCL0] | 3.86 ± 0.13 | 11.6 ± 1.6 | 28.4 ± 2 | 32.5 ± 0.58 | 
MHSFPPLLLLLFWGVVSHSFPATLETQEQDVDLVQKYLEKYYNLKNDGRQVEKRRNSGPVVEKLKQMQEFFGLKVTGKPDAETLKVMKQPRCGVPDVAQFVLTEGNPRWEQTHLTYRIENYTPDLPRADVDHAIEKAFQLWSNVTPLTFTKVSEGQADIMISFVRGDHRDNSPFDGPGGNLAHAFQPGPGIGGDAHFDEDERWTNNFREYNLHRVAAHELGHSLGLSHSTDIGALMYPSYTFSGDVQLAQDDIDGIQAIYGRSQNPVQPIGPQTPKACDSKLTFDAITTIRGEVMFFKDRFYMRTNPFYPEVELNFISVFWPQLPNGLEAAYEFADRDEVRFFKGNKYWAVQGQNVLHGYPKDIYSSFGFPRTVKHIDAALSEENTGKTYFFVANKYWRYDEYKRSMDPGYPKMIAHDFPGIGHKVDAVFMKDGFFYFFHGTRQYKFDPKTKRILTLQKANSWFNCRKN |  |  |  |  | percentage of EdU-negative (hTERT-HMEC; [4]): 4.22 ± 0.79%; percentage of EdU-negative (hTERT-HMEC; [5]): 6.403 ± 0.048%; percentage of EdU-negative (MCF7; [4]): 24.3 ± 3.2%; percentage of EdU-negative (MCF7; [5]): 26.43 ± 0.08%
MHYCVLSAFLILHLVTVALSLSTCSTLDMDQFMRKRIEAIRGQILSKLKLTSPPEDYPEPEEVPPEVISIYNSTRDLLQEKASRRAAACERERSDEEYYAKEVYKIDMPPFFPSENAIPPTFYRPYFRIVRFDVSAMEKNASNLVKAEFRVFRLQNPKARVPEQRIELYQILKSKDLTSPTQRYIDSKVVKTRAEGEWLSFDVTDAVHEWLHHKDRNLGFKISLHCPCCTFVPSNNYIIPNKSEELEARFAGIDGTSTYTSGDQKTIKSTRKKNSGKTPHLLLMLLPSYRLESQQTNRRKKRALDAAYCFRNVQDNCCLRPLYIDFKRDLGWKWIHEPKGYNANFCAGACPYLWSSDTQHSRVLSLYNTINPEASASPCCVSQDLEPLTILYYIGKTPKIEQLSNMIVKSCKCS |  |  |  |  | percentage of EdU-negative (hTERT-HMEC; [6]): 4.63 ± 1.4%; percentage of EdU-negative (hTERT-HMEC; [7]): 15.8 ± 4.9%; percentage of EdU-negative (MCF7; [6]): 30.8 ± 2.4%; percentage of EdU-negative (MCF7; [7]): 40.6 ± 2.4%
MIAFLLTSVLMIPHAGGHPLDTPHLPQELPPGLPNNINITFFSGMFKNVESVAEIFDCLGPHFTWLQAVFTNFPVLIQFVNGMKCVAGLCPRDFEDYGCTCRFEMEGLPVDESDSCCFQHRRCYEEAAEMDCLQDPAKLSTEVNCVSKKIICESKDNCEHLLCTCDKAAIECLARSSLNSSLNLLDTSFCLAQTPETTIKEDLTTLLPRVVPVEPTDTSLTALSGEEAGHDQEGVGAARATSPPGSAEIVATRVTAKIVTLVPAGIKSLGLAVSSVENDPEETTEKACDRFTFLHLGSGDNMQVMPQLGEMLFCLTSRCPEEFESYGCYCGQEGRGEPRDDLDRCCLSHHCCLEQVRRLGCLLERLPWSPVVCVDHTPKCGGQSLCEKLLCACDQTAAECMTSASFNQSLKSPSRLGCPGQPAACEDSLHPVPAAPTLGSSSEEDSEEDPPQEDLGRAKRFLRKSLGPLGIGPLHGR | 5.21 ± 0.36 | 5.66 ± 0.11 | 26.2 ± 2.5 | 25.7 ± 0.78 | 
MICLVLTIFANLFPAACTGAHERTFLAVKPDGVQRRLVGEIVRRFERKGFKLVALKLVQASEELLREHYAELRERPFYGRLVKYMASGPVVAMVWQGLDVVRTSRALIGATNPADAPPGTIRGDFCIEVGKNLIHGSDSVESARREIALWFRADELLCWEDSAGHWLYE | 4.25 ± 0.15 | 5.77 ± 0.68 | 25.5 ± 3.9 | 22.9 ± 1.8 | 
MICQKFCVVLLHWEFIYVITAFNLSYPITPWRFKLSCMPPNSTYDYFLLPAGLSKNTSNSNGHYETAVEPKFNSSGTHFSNLSKTTFHCCFRSEQDRNCSLCADNIEGKTFVSTVNSLVFQQIDANWNIQCWLKGDLKLFICYVESLFKNLFRNYNYKVHLLYVLPEVLEDSPLVPQKGSFQMVHCNCSVHECCECLVPVPTAKLNDTLLMCLKITSGGVIFQSPLMSVQPINMVKPDPPLGLHMEITDDGNLKISWSSPPLVPFPLQYQVKYSENSTTVIREADKIVSATSLLVDSILPGSSYEVQVRGKRLDGPGIWSDWSTPRVFTTQDVIYFPPKILTSVGSNVSFHCIYKKENKIVPSKEIVWWMNLAEKIPQSQYDVVSDHVSKVTFFNLNETKPRGKFTYDAVYCCNEHECHHRYAELYVIDVNINISCETDGYLTKMTCRWSTSTIQSLAESTLQLRYHRSSLYCSDIPSIHPISEPKDCYLQSDGFYECIFQPIFLLSGYTMWIRINHSLGSLDSPPTCVLPDSVVKPLPPSSVKAEITINIGLLKISWEKPVFPENNLQFQIRYGLSGKEVQWKMYEVYDAKSKSVSLPVPDLCAVYAVQVRCKRLDGLGYWSNWSNPAYTVVMDIKVPMRGPEFWRIINGDTMKKEKNVTLLWKPLMKNDSLCSVQRYVINHHTSCNGTWSEDVGNHTKFTFLWTEQAHTVTVLAINSIGASVANFNLTFSWPMSKVNIVQSLSAYPLNSSCVIVSWILSPSDYKLMYFIIEWKNLNEDGEIKWLRISSSVKKYYIHDHFIPIEKYQFSLYPIFMEGVGKPKIINSFTQDDIEKHQSDAGLYVIVPVIISSSILLLGTLLISHQRMKKLFWEDVPNPKNCSWAQGLNFQKPETFEHLFIKHTASVTCGPLLLEPETISEDISVDTSWKNKDEMMPTTVVSLLSTTDLEKGSVCISDQFNSVNFSEAEGTEVTYEDESQRQPFVKYATLISNSKPSETGEEQGLINSSVTKCFSSKNSPLKDSFSNSSWEIEAQAFFILSDQHPNIISPHLTFSEGLDELLKLEGNFPEENNDKKSIYYLGVTSIKKRESGVLLTDKSRVSCPFPAPCLFTDIRVLQDSCSHFVENNINLGTSSKKTFASYMPQFQTCSTQTHKIMENKMCDLTV |  |  |  |  | percentage of EdU-negative (hTERT-HMEC; protein concentration 0.012 µM): 5.06 ± 0.43%; percentage of EdU-negative (hTERT-HMEC; protein concentration 0.12 µM): 5.17 ± 0.64%; percentage of EdU-negative (MCF7; protein concentration 0.012 µM): 23.4 ± 3.1%; percentage of EdU-negative (MCF7; protein concentration 0.12 µM): 21.2 ± 0.96%
MIFLLLMLSLELQLHQIAALFTVTVPKELYIIEHGSNVTLECNFDTGSHVNLGAITASLQKVENDTSPHRERATLLEEQLPLGKASFHIPQVQVRDEGQYQCIIIYGVAWDYKYLTLKVKASYRKINTHILKVPETDEVELTCQATGYPLAEVSWPNVSVPANTSHSRTPEGLYQVTSVLRLKPPPGRNFSCVFWNTHVRELTLASIDLQSQMEPRTHPTWLLHIFIPFCIIAFIFIATVIALRKQLCQKLYSSKDTTKRPVTTTKREVNSAI [Q9BQ51] | 4.79 ± 0.078 | 7.37 ± 0.34 | 23.9 ± 0.28 | 24.6 ± 0.78 | 

— the supplement of paper PMC11316812
